Reference: IntAct's records for PubMed 39009827
Values belong to the substance of their own block, whether it stands above or below them.

Key:
[1] = target: eps15_human EPS15 (UniProt P42566)
[2] = target: ima3_human KPNA4 (UniProt O00629)
[3] = target: ima3_human KPNA4 (UniProt O00629); remark: listed apart in the source
[4] = target: terf1_human TERF1 (UniProt P54274)
[5] = target: G3BP2 (UniProt Q9UN86)
[6] = target: oxsr1_human OXSR1 (UniProt O95747)
[7] = target: src_human SRC (UniProt P12931)

Chain of oxsr1_human OXSR1 (O95747 whole entry, looked up): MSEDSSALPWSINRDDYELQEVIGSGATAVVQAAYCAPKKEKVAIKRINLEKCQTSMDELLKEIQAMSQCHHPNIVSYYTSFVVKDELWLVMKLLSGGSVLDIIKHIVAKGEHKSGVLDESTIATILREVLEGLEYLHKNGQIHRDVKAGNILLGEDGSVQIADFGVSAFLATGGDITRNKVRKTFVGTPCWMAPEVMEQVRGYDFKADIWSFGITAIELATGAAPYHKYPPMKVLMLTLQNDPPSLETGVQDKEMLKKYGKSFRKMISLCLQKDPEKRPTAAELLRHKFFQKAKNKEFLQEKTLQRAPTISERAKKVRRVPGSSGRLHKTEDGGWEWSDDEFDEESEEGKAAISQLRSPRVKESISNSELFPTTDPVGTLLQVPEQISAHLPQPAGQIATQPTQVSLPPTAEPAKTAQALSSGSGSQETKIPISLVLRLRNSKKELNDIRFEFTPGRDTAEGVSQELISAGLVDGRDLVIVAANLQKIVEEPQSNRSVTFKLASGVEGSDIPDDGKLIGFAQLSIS
Chain of ima3_human KPNA4 (O00629 whole entry): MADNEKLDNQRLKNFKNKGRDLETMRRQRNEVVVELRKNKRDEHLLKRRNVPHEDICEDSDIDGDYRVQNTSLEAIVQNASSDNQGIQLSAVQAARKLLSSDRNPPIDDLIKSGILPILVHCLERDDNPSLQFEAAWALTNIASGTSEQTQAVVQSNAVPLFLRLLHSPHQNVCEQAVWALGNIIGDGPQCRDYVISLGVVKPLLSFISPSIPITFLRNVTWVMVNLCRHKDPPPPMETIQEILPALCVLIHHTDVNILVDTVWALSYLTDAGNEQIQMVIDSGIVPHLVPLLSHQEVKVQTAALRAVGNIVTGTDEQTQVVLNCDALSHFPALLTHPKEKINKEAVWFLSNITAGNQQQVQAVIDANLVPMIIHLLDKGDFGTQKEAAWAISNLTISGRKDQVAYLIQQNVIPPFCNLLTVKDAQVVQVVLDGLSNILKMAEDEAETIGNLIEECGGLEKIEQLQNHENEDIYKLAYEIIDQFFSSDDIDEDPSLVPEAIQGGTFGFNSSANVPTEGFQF
Chain of Endothelial PAS domain-containing protein 1 (Homo sapiens), Q99814 F540L (Q99814 whole entry F540L, the tested form may be a part): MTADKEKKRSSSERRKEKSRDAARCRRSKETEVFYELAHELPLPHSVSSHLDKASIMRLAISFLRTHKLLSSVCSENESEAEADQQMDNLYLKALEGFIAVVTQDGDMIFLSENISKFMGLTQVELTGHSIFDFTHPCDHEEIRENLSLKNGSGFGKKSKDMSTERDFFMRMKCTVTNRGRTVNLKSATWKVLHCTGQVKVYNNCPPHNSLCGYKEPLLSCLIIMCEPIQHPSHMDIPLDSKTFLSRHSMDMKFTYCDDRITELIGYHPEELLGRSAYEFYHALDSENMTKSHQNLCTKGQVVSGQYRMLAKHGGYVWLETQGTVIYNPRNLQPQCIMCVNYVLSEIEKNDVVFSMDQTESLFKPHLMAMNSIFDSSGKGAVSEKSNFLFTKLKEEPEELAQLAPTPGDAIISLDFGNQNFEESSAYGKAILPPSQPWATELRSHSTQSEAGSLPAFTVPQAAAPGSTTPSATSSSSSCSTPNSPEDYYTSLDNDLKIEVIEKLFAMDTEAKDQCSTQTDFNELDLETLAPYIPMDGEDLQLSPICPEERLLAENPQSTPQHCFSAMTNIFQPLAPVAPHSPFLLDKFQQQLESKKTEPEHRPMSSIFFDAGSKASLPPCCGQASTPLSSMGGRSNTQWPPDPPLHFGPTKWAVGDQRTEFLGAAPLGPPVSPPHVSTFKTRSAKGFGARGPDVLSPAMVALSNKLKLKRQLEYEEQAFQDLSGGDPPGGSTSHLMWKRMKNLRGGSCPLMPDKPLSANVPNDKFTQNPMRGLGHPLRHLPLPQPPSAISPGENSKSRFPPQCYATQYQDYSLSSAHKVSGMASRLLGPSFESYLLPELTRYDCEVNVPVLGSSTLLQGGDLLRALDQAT
Chain of terf1_human TERF1 (P54274 whole entry): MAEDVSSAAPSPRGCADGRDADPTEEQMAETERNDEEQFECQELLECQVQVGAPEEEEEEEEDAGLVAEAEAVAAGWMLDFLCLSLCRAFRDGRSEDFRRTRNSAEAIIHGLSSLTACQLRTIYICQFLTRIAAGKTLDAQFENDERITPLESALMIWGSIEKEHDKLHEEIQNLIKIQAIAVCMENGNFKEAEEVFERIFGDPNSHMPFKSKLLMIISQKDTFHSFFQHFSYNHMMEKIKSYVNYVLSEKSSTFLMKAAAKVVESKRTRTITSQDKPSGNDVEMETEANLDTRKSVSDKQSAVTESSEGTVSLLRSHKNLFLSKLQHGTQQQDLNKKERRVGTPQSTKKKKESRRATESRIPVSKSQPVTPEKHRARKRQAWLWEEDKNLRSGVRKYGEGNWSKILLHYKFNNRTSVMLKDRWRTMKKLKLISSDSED
Chain of G3BP2 (Q9UN86 whole entry): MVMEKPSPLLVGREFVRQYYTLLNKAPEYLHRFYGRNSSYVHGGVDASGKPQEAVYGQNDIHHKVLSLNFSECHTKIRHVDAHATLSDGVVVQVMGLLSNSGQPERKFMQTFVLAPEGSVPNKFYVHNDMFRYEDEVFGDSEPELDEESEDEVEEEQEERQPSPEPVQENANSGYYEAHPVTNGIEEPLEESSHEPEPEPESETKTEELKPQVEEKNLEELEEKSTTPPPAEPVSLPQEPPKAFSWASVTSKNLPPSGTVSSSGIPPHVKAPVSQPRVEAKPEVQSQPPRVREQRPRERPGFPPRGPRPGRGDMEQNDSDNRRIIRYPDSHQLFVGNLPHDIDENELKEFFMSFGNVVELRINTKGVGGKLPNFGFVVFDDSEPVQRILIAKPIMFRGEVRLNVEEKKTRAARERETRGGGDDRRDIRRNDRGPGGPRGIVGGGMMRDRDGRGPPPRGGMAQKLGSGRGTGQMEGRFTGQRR
Chain of eps15_human EPS15 (P42566 whole entry): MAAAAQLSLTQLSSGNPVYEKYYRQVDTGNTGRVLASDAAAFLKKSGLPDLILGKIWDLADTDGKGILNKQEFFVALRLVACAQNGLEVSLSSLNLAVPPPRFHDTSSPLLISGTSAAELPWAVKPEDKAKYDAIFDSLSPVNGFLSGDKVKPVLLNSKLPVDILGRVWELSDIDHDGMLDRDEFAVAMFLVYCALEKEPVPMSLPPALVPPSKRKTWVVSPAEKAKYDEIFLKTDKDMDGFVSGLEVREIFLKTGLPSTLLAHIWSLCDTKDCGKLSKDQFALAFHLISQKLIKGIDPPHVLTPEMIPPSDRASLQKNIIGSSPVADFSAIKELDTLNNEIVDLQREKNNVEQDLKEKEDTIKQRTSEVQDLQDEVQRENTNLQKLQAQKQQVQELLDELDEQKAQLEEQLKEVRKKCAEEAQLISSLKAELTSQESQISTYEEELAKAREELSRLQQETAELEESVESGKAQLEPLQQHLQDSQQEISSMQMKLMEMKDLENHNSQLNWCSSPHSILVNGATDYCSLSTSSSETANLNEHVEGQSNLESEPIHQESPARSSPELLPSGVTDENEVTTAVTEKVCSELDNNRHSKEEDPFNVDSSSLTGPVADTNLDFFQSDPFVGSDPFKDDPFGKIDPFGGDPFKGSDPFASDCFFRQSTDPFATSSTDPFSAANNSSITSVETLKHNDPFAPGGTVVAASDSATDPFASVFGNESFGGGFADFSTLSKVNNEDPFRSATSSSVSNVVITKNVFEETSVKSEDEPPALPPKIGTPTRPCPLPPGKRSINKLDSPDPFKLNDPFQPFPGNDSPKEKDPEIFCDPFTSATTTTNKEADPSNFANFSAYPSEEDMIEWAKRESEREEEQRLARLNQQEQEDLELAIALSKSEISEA
Chain of ADP-ribosylation factor-like protein 13B (Homo sapiens), Q3SXY8 N255K (Q3SXY8 whole entry N255K): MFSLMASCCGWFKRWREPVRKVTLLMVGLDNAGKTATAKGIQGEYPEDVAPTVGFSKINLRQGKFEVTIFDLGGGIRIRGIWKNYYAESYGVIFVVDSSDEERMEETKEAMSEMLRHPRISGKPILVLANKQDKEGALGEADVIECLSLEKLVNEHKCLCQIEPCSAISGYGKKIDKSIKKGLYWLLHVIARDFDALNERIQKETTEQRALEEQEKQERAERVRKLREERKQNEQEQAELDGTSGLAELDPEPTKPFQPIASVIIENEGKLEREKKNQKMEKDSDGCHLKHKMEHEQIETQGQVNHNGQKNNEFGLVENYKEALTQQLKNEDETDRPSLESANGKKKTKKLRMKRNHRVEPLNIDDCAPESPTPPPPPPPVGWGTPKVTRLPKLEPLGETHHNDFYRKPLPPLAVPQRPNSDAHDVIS

effect of a mutation on the interaction [4]: decreasing interaction strength
Substance: Endothelial PAS domain-containing protein 1 (Homo sapiens), Q99814 F540L

effect of a mutation on the interaction [6]: decreasing interaction strength
Substance: Titin (Homo sapiens), Q8WZ42 I34306N

effect of a mutation on the interaction [6]: decreasing interaction strength
Substance: Titin (Homo sapiens), Q8WZ42 I34306S

effect of a mutation on the interaction [6]: decreasing interaction strength
Substance: Titin (Homo sapiens), Q8WZ42 I34306T

effect of a mutation on the interaction [7]: decreasing interaction strength
Substance: Voltage-dependent T-type calcium channel subunit alpha-1H (Homo sapiens), O95180 P684H

Further lines, the substance ahead of its results:

Substance: ADP-ribosylation factor-like protein 13B (Homo sapiens), Q3SXY8 N255K
effect of a mutation on the interaction [1]: decreasing interaction strength

Substance: CREB-binding protein (Homo sapiens), Q92793 K13E
effect of a mutation on the interaction [2]: disrupting interaction strength
effect of a mutation on the interaction [3]: causing an interaction

Substance: Histone-lysine N-methyltransferase, H3 lysine-36 specific (Homo sapiens), Q96L73 L1797P
effect of a mutation on the interaction [5]: decreasing interaction strength

Substance: Voltage-dependent T-type calcium channel subunit alpha-1H (Homo sapiens), O95180 P684R
effect of a mutation on the interaction [7]: decreasing interaction strength
